From PMC9562052

Columns and labels:
[1] = biological target: human lactate dehydrogenase (hLDH) (human, UniProt P00338 1-332); assay: ELASA sandwich
[2] = biological target: Plasmodium falciparum lactate dehydrogenase (PfLDH) (Plasmodium falciparum, UniProt Q76NM3 1-316); assay: ELASA sandwich

B1: 2008s aptamer, 3'-biotin (ssDNA)
DNA: CTGGGCGGTAGAACCATAGTGACCCAGCCGTCTAC
B1: no binding [1]; binds [2].
